The values that follow are results of earlier work, collected in publication PMC7764831.

The target in the data set is p53 (Homo sapiens) (UniProt P04637).
p53 (Homo sapiens), sequence (P04637 whole entry): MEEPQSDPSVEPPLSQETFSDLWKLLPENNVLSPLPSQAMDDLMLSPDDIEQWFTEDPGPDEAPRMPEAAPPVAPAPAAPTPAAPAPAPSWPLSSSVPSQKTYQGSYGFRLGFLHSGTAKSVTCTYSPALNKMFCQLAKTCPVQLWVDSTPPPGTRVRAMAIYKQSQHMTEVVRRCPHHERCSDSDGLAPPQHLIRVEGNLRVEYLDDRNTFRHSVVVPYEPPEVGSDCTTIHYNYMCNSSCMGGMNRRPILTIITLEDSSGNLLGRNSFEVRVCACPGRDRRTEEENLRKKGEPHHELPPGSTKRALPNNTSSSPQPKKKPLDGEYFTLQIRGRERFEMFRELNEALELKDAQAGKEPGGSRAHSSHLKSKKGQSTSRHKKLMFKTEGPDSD

Azurin, sequence (P00282 21-148): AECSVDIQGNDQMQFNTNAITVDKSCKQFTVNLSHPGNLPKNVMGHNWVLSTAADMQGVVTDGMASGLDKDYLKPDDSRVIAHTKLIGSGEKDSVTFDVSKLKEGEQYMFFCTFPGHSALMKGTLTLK

With Azurin (from UniProt P00282), the Kd was 6 µM.

Broadly, the Kd is a measure of binding affinity in units of concentration.
